Results as given in patent US20240270821A1, “GIP/GLP1/GCG TRI-RECEPTOR AGONISTS AND USES THEREOF” (priority 2023, published 2024).
Changes are numbered by the printed parent chain. One block for each molecule: values may come before it. Starred links: 1 amine or outer side, 2 acyl side, 3 side chain; linkers in the order of their positions; H or OH if unused. Non-standard residues stand in square brackets, D forms with d. Groups on a side chain read outwards from the residue. No end group written: not given here. *: point of attachment. C20 diacid = O=C(O)CCCCCCCCCCCCCCCCCCC(=O)*; Phe(4-CN) = N#Cc1ccc(C[C@H](N)C(=O)O)cc1; αMePhe(2-F) = C[C@](N)(Cc1ccccc1F)C(=O)O; γGlu = O=C(O)[C@H](CCC(=O)[*:2])N[*:1]; NMeY = CN[C@@H](Cc1ccc(O)cc1)C(=O)O; αMeF = C[C@](N)(Cc1ccccc1)C(=O)O; αMeL = CC(C)C[C@](C)(N)C(=O)O; AEEA = NCCOCCOCC(=O)O; Aib = CC(C)(N)C(=O)O

What was measured:
hGLP-1R [1] = target: T1, hGLP-1R (Homo sapiens, UniProt P43220); experiment: Functional cAMP activation in the presence of 0.1% casein (no HSA); format: cell-based; conditions: in the presence of 0.1% casein (no HSA); geometric mean; read-out: Relative cAMP EC50, hGLP-1R;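 also: intracellular cAMP rise after 30 min at 37 °C read by HTRF, normalized between buffer only (0%) and maximal control ligand (100%), four-parameter variable-slope fit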
Target sequence in this assay (P43220 24-463): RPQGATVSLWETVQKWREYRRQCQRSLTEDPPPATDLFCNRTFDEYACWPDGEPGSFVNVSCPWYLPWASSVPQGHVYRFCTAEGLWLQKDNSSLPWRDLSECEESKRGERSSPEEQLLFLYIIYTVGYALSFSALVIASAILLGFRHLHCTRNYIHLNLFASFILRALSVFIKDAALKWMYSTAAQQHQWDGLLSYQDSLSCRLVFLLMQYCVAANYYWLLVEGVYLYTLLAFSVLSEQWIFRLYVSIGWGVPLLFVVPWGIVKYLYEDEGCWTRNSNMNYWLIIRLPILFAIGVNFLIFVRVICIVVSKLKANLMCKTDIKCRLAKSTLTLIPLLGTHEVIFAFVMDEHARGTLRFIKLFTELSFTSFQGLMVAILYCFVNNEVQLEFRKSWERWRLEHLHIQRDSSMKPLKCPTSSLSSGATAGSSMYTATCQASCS

hGLP-1R [2] = target: T1, hGLP-1R; experiment: Functional cAMP activity in the presence of 1% HSA; format: cell-based; conditions: read-out: cAMP Rel EC50, hGLP-1R
Target sequence in this assay (P43220 24-463): as above

human GcgR = human GcgR (Homo sapiens, UniProt P47871); experiment: Functional cAMP activity in the presence of 1% HSA; format: cell-based; conditions: read-out: cAMP Rel EC50, hGcgR
human GcgR, sequence (P47871 26-477): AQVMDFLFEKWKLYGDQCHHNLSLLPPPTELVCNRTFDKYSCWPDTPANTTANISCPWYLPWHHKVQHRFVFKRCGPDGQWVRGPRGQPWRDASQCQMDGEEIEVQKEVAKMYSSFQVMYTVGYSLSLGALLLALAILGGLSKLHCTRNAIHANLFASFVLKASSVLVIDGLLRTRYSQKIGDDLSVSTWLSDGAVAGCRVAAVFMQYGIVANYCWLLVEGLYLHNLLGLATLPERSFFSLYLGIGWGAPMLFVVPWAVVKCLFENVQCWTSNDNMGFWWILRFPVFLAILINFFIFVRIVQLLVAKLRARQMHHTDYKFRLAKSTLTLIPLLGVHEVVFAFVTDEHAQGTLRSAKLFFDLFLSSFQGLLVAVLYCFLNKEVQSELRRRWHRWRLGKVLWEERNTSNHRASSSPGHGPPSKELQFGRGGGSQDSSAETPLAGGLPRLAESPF

hGIPR [3] = target: T2, hGIPR (Homo sapiens, UniProt P48546); experiment: Functional cAMP activity in the presence of 1% HSA; format: cell-based; conditions: read-out: cAMP Rel EC50, hGIPR
T2 sequence (P48546 22-466): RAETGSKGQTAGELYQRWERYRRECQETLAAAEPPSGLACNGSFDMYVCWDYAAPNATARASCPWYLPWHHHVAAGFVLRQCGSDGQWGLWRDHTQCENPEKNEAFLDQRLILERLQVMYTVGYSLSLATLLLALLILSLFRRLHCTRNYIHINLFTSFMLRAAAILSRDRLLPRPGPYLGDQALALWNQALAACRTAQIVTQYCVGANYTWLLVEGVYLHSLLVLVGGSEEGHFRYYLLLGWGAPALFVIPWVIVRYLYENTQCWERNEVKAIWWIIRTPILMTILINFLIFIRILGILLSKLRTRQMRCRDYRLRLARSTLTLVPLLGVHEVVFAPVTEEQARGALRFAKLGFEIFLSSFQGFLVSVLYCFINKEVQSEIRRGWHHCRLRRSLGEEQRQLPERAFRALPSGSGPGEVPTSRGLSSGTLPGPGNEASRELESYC

hGcgR = hGcgR (Homo sapiens, UniProt P47871); experiment: Functional cAMP activation in the presence of 0.1% casein (no HSA); format: cell-based; conditions: in the presence of 0.1% casein (no HSA); geometric mean; read-out: Relative cAMP EC50, hGcgR;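 also: intracellular cAMP rise after 30 min at 37 °C, read by HTRF against a cAMP standard curve, scaled from buffer only (0%) to maximal control ligand response (100%)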
hGcgR, sequence (P47871 26-477): as the sequence (P47871 26-477) above

hGLP-1R [4] = target: T1, hGLP-1R; experiment: GLP-1R CHO cell β-arrestin recruitment assay; format: cell-based; parameters: host or cells: CHO-K1 (PathHunter, assay-ready frozen cells);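 also: luminescence read after 90 min peptide exposure at 37 °C and a further 60 min with detection reagent at room temperature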
Target sequence in this assay (P43220 24-463): as the sequence (P43220 24-463) above
Target sequence in this assay (P32121 whole entry partner): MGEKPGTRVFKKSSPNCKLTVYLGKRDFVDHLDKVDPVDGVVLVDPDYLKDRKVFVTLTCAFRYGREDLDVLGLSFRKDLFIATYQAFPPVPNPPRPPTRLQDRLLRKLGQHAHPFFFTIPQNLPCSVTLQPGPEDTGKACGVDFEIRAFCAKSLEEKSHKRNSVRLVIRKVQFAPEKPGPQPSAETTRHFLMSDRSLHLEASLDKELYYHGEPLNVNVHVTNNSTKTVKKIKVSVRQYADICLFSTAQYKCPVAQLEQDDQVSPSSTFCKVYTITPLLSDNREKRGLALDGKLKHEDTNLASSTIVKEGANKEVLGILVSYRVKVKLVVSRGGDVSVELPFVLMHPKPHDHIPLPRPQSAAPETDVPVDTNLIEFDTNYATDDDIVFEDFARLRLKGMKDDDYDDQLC

hGIPR [5] = target: T2, hGIPR; experiment: Functional cAMP activation in the presence of 0.1% casein (no HSA); format: cell-based; conditions: in the presence of 0.1% casein (no HSA); geometric mean; read-out: Relative cAMP EC50, hGIPR;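 also: intracellular cAMP rise after 30 min at 37 °C read by HTRF against a standard curve, scaled between buffer alone (0%) and top control ligand concentration (100%), four-parameter fit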
hGLP-1R [6] = target: T1, hGLP-1R; experiment: cell-based or functional assay
Target sequence in this assay (P43220 24-463): as the sequence (P43220 24-463) above

[7] = target: T3, human GIP receptor (human) (UniProt P48546); experiment: cell-based or functional assay
T3 sequence (looked up): T2 sequence (P48546 22-466)

[8] = target: Pro-Link-tagged Human GLP-1R (human) (UniProt P43220); experiment: cell-based or functional assay
Pro-Link-tagged Human GLP-1R (human), sequence (P43220 24-463): as above

[9] = target: human glucagon receptor (human) (UniProt P47871); experiment: cell-based or functional assay
human glucagon receptor (human), sequence (P47871 26-477): as the sequence (P47871 26-477) above

[10] = target: human GLP-1R (SNAP-GLP-1R expressed in HEK293 cells) (human) (UniProt P43220); experiment: cell-based or functional assay
human GLP-1R (SNAP-GLP-1R expressed in HEK293 cells) (human), sequence (P43220 24-463): as the sequence (P43220 24-463) above

[11] = target: human GLP1-R (SNAP-GLP-1R expressed in HEK293 cells) (human) (UniProt P43220); experiment: cell-based or functional assay
human GLP1-R (SNAP-GLP-1R expressed in HEK293 cells) (human), sequence (P43220 24-463): as above

B4: Example 1 (peptide)
chain: YXQGTFTSDFSKXLDKKAQXAFIEYLLAGGPSSGEPPPSEG
modifications: Aib, αMeL; acylated Lys; C-terminal amide; synthetic construct; SITE 2: note = 2-Aminoisobutyric Acid; SITE 13: note = alpha-methyl-leucine; SITE 17: note = Lysine is chemically modified through conjugation of the epsilon-amino group of the Lysine side chain with (2-[2-(2-Amino-ethoxy)-ethoxy]-acetyl)-(gamma-Glu)-CO-(CH2) 18-CO2H; SITE 20: n
- Relative cAMP EC50 (hGLP-1R [6]): 1.42 nM
- cAMP Rel EC50 (in the presence of 1% HSA) (hGLP-1R [6]): 524 nM
- Relative cAMP EC50 [7]: 0.207 nM
- cAMP Rel EC50 (in the presence of 1% HSA) [7]: 73.9 nM
- % Stimulation Max [8]: 17.3%
- hGLP1R β-arrestin Rel EC50 [8]: > 10000 nM
- GLP1R Internalization EC50 [11]: 44.7 nM
- Internalization % TOP [11]: 69.1%
- Relative cAMP EC50 [9]: 3.72 nM
- cAMP Rel EC50 (in the presence of 1% HSA) [9]: 1690 nM

B5: Example 2 (peptide)
chain: B4 chain with E40G, G41E
modifications: Aib, αMeL; acylated Lys; C-terminal amide; synthetic construct; SITE 2: note = 2-Aminoisobutyric Acid; SITE 13: note = alpha-methyl-leucine; SITE 17: note = Lysine is chemically modified through conjugation of the epsilon-amino group of the Lysine side chain with (2-[2-(2-Amino-ethoxy)-ethoxy]-acetyl)-(gamma-Glu)-CO-(CH2) 18-CO2H; SITE 20: n
- Relative cAMP EC50 (hGLP-1R [6]): 1.65 nM
- cAMP Rel EC50 (in the presence of 1% HSA) (hGLP-1R [6]): 631 nM
- Relative cAMP EC50 [7]: 0.207 nM
- cAMP Rel EC50 (in the presence of 1% HSA) [7]: 75.5 nM
- % Stimulation Max [8]: 12.3%
- hGLP1R β-arrestin Rel EC50 [8]: > 10000 nM
- GLP1R Internalization EC50 [11]: 49.5 nM
- Internalization % TOP [11]: 66.8%
- Relative cAMP EC50 [9]: 4.29 nM
- cAMP Rel EC50 (in the presence of 1% HSA) [9]: 1630 nM

B6: Example 4 (peptide)
chain: B4 chain with G41E
modifications: Aib, alpha-methyl-Leu, acylated Lys, C-terminal amide; synthetic construct; SITE 2: note = 2-Aminoisobutyric Acid; SITE 13: note = alpha-methyl-leucine; SITE 17: note = Lysine is chemically modified through conjugation of the epsilon-amino group of the Lysine side chain with (2-[2-(2-Amino-ethoxy)-ethoxy]-acetyl)-(gamma-Glu)-CO-(CH2) 18-CO2H; SITE 20: n
- Relative cAMP EC50 (hGLP-1R [6]): 1.66 nM
- cAMP Rel EC50 (in the presence of 1% HSA) (hGLP-1R [6]): 869 nM
- Relative cAMP EC50 [7]: 0.192 nM
- cAMP Rel EC50 (in the presence of 1% HSA) [7]: 62.3 nM
- % Stimulation Max [8]: 15.8%
- hGLP1R β-arrestin Rel EC50 [8]: 23.2 nM
- GLP1R Internalization EC50 [11]: 49.1 nM
- Internalization % TOP [11]: 67.8%
- Relative cAMP EC50 [9]: 3.2 nM
- cAMP Rel EC50 (in the presence of 1% HSA) [9]: 1580 nM

B7: Example 3 (peptide)
chain: B4 chain with E40S, G41E
modifications: Aib, αMeL; acylated Lys; C-terminal amide; synthetic construct; SITE 2: note = 2-Aminoisobutyric Acid; SITE 13: note = alpha-methyl-leucine; SITE 17: note = Lysine is chemically modified through conjugation of the epsilon-amino group of the Lysine side chain with (2-[2-(2-Amino-ethoxy)-ethoxy]-acetyl)-(gamma-Glu)-CO-(CH2) 18-CO2H; SITE 20: n
- Relative cAMP EC50 (hGLP-1R [6]): 1.67 nM
- cAMP Rel EC50 (in the presence of 1% HSA) (hGLP-1R [6]): 546 nM
- Relative cAMP EC50 [7]: 0.217 nM
- cAMP Rel EC50 (in the presence of 1% HSA) [7]: 48.1 nM
- % Stimulation Max [8]: 16.5%
- hGLP1R β-arrestin Rel EC50 [8]: > 10000 nM
- GLP1R Internalization EC50 [11]: 49.2 nM
- Internalization % TOP [11]: 69.7%
- Relative cAMP EC50 [9]: 3.8 nM
- cAMP Rel EC50 (in the presence of 1% HSA) [9]: 1590 nM

B8: Example 5 (peptide)
chain: B4 chain with E40S, G41E
modifications: acylated Lys, C-terminal amide, non-natural residues; synthetic construct; SITE 2: note = 2-Aminoisobutyric Acid; SITE 13: note = alpha-methyl-leucine; SITE 17: note = Lysine is chemically modified through conjugation of the epsilon-amino group of the Lysine side chain with (2-[2-(2-Amino-ethoxy)-ethoxy]-acetyl)2-(gamma-Glu)-CO-(CH2 )18-CO2H; SITE 20:
- Relative cAMP EC50 (hGLP-1R [6]): 2.37 nM
- cAMP Rel EC50 (in the presence of 1% HSA) (hGLP-1R [6]): 675 nM
- Relative cAMP EC50 [7]: 0.177 nM
- cAMP Rel EC50 (in the presence of 1% HSA) [7]: 32.5 nM
- % Stimulation Max [8]: 18.4%
- hGLP1R β-arrestin Rel EC50 [8]: > 10000 nM
- GLP1R Internalization EC50 [11]: 53.4 nM
- Internalization % TOP [11]: 75%
- Relative cAMP EC50 [9]: 7.4 nM
- cAMP Rel EC50 (in the presence of 1% HSA) [9]: 2670 nM

More lines, now with the values ahead:

- EC50 (hGLP-1R [1]): 0.641 nM
- EC50 (hGLP-1R [2]): 82.4 nM
- EC50 (human GcgR): 1500 nM
- EC50 (hGIPR [3]): 81.8 nM
- EC50 (hGcgR): 6.73 nM
- EC50 (hGLP-1R [4]; CHO-K1 PathHunter, β-arrestin-2, 0.1% casein, read-out: hGLP1R β-arrestin Rel EC50): 13.2 nM
- % Stimulation Max (hGLP-1R [4]; normalized to GLP-1(7-36) as maximum control): 59.1%
- EC50 (hGIPR [5]): 0.722 nM
Molecule: H-[NMeY][Aib]QGT[αMeF]TSDYSILLDKQAAK([AEEA-AEEA-γGlu-C20 diacid])AFVQWLIAGGPSSGEPPPSEG-NH2 [Example 301]

- Relative cAMP EC50 (hGLP-1R [6]): 0.798 nM
- cAMP Rel EC50 (1% HSA) (hGLP-1R [6]): 110 nM
- Relative cAMP EC50 [7]: 0.0912 nM
- cAMP Rel EC50 (1% HSA) [7]: 13 nM
- % Stimulation Max [8]: 90.1%
- hGLP1R β-arrestin Rel EC50 [8]: 8.78 nM
- Relative cAMP EC50 [9]: 4.49 nM
- cAMP Rel EC50 (1% HSA) [9]: 836 nM
- GLP1R Internalization EC50 [10]: 27.1 nM
- Internalization % TOP [10]: 92.8%
B1: Example 321 (peptide)
chain: Y[Aib]QGT[αMePhe(2-F)]TSD[Phe(4-CN)]SILLDKQAQK([AEEA-AEEA-γGlu-C20 diacid])AFIEYLLEGGPSSGEPPPSEG-NH2

- Relative cAMP EC50 (hGLP-1R [6]): 0.536 nM
- cAMP Rel EC50 (in the presence of 1% HSA) (hGLP-1R [6]): 171 nM
- Relative cAMP EC50 [7]: 0.0806 nM
- cAMP Rel EC50 (in the presence of 1% HSA) [7]: 21.8 nM
- % Stimulation Max [8]: 55.2%
- hGLP1R β-arrestin Rel EC50 [8]: 14 nM
- Relative cAMP EC50 [9]: 1.72 nM
- cAMP Rel EC50 (in the presence of 1% HSA) [9]: 517 nM
- GLP1R Internalization EC50 [10]: 19.2 nM
- Internalization % TOP [10]: 87.2%
B2: Example 296 (peptide)
chain: Y[Aib]QGT[αMePhe(2-F)]TSDYSILLDKIAAK([AEEA-γGlu-C20 diacid])AFIEYLIEGGPSSGEPPPSEG-NH2

- Relative cAMP EC50 (hGLP-1R [6]): 1.56 nM
- cAMP Rel EC50 (1% HSA) (hGLP-1R [6]): 293 nM
- Relative cAMP EC50 [7]: 0.232 nM
- cAMP Rel EC50 (1% HSA) [7]: 37.7 nM
- % Stimulation Max [8]: 44%
- hGLP1R β-arrestin Rel EC50 [8]: 10.8 nM
- Relative cAMP EC50 [9]: 6.04 nM
- cAMP Rel EC50 (1% HSA) [9]: 1440 nM
- GLP1R Internalization EC50 [10]: 28.2 nM
- Internalization % TOP [10]: 84.8%
B3: Example 323 (peptide)
chain: Y[Aib]QGTFTSDYSI[αMeL]LDKIAAK([AEEA-AEEA-γGlu-C20 diacid])QFVQWLIE[Aib]GPSSGEPPPSEG-NH2
modifications: ends and bridges not checked
